Laboratory results from the supplement of paper PMC10126150.
± gives the standard deviation of the averaged measurements.

Tested on: ATP
Assay: switch fluorescence ratio, 500 uM ATP over buffer (Cy3 cluster intensity, sum of 5 cycles each) (fold (ratio)); higher = stronger signal-on switching upon ATP binding; sequences stand for … in TCGTCGGCAGCGTCAGATGTGTATAAGAGACAGTTTTTTTTTTTTTTTTTTTTTTTTT…TC
Settings: aptamer strand: ATP DNA aptamer (quencher-CACCTGGGGGAGTATTGCGGAGGAAGG + anchor), 100 nM annealed; ATP concentration: 500 uM
Procedure, shortened: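 Between each of five buffer/ATP cycles, the flow-cell was stripped with NaOH and re-annealed. Each cycle imaged Cy3-labelled switching-strand clusters, annealed to 100 nM quencher-labelled ATP aptamer on a modified Illumina MiSeq flow-cell, first in selection buffer and then after 15 min with 500 uM ATP at 22 °C. The fluorescence ratio is summed target-cycle over summed buffer-cycle Cy3 intensity per cluster, averaged per switch-domain sequence, with clusters outside 100-1000 RFU excluded.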
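Further: ATP exposure 15 min at 22 °C before imaging.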

Q: Which switch fluorescence ratio does the source give for TCACTATATT here?
A: 1.08 ± 0.045

Q: How did the switch fluorescence ratio turn out when CGGTAAGGGG was run?
A: 0.987 ± 0.01

Q: With CCGGATTATA as the sequence, how does the switch fluorescence ratio read?
A: 1.046 ± 0.0059

Q: AGCGGGGGTG was tested. Which switch fluorescence ratio did it give?
A: 1.02 ± 0.018

Q: How did the switch fluorescence ratio turn out when CGACTTGGAA was run?
A: 1.02 ± 0.036

Q: Which switch fluorescence ratio does the source give for CTGTTTCACA here?
A: 0.949 ± 0.046

Q: How did the switch fluorescence ratio turn out when TCCAATATGG was run?
A: 1.05 ± 0.094

Q: How did the switch fluorescence ratio turn out when ATGGTGTGG was run?
A: 1.02 ± 0.074

Q: ACAATGCTTT was tested. Which switch fluorescence ratio did it give?
A: 1.03 ± 0.017

Q: TGGACATGGT was tested. Which switch fluorescence ratio did it give?
A: 0.9856 ± 0.005

Q: AGTTCAGTAT was tested. Which switch fluorescence ratio did it give?
A: 0.983 ± 0.019

Q: How did the switch fluorescence ratio turn out when GGGGAAGGAA was run?
A: 0.998 ± 0.027

Q: GGGTGTTGCT was tested. Which switch fluorescence ratio did it give?
A: 1 ± 0.017

Q: With ACGACTTGGT as the sequence, how does the switch fluorescence ratio read?
A: 1.09 ± 0.11

Q: How did the switch fluorescence ratio turn out when ATTATGGGGT was run?
A: 1 ± 0.017

Q: CTGAATATGA was tested. Which switch fluorescence ratio did it give?
A: 1 ± 0.065

Q: With TTGGAGGGG as the sequence, how does the switch fluorescence ratio read?
A: 0.988 ± 0.025

Q: With TTAGTACTGA as the sequence, how does the switch fluorescence ratio read?
A: 1.05 ± 0.035

Q: How did the switch fluorescence ratio turn out when GATTGGTAAT was run?
A: 0.996 ± 0.028

Q: For TAGTTTCTGG, which switch fluorescence ratio is on record?
A: 0.965 ± 0.02

Q: ATCGAGGGA was tested. Which switch fluorescence ratio did it give?
A: 0.995 ± 0.061

Q: Which switch fluorescence ratio does the source give for TTATCGCTGC here?
A: 1.06 ± 0.11

Q: TAGTGTGTTG was tested. Which switch fluorescence ratio did it give?
A: 0.996 ± 0.011

Q: How did the switch fluorescence ratio turn out when TGGGGACAGT was run?
A: 1 ± 0.017

Q: For TTACTTAGGT, which switch fluorescence ratio is on record?
A: 1.03 ± 0.068

Q: How did the switch fluorescence ratio turn out when GAAAGCGGGG was run?
A: 0.968 ± 0.024

Q: How did the switch fluorescence ratio turn out when TTCTGGAAAA was run?
A: 1.05 ± 0.064

Q: With TAGGGATTTG as the sequence, how does the switch fluorescence ratio read?
A: 1.01 ± 0.014

Q: For GCAGTATACC, which switch fluorescence ratio is on record?
A: 1.15 ± 0.019

Q: Which switch fluorescence ratio does the source give for TTTGTATGTT here?
A: 0.991 ± 0.051

Q: TGGTAAATGG was tested. Which switch fluorescence ratio did it give?
A: 1.01 ± 0.019

Q: For TTTCTAGTGA, which switch fluorescence ratio is on record?
A: 0.991 ± 0.047

Q: How did the switch fluorescence ratio turn out when TAAGTGCGGA was run?
A: 0.982 ± 0.011

Q: How did the switch fluorescence ratio turn out when GCGATCAGCT was run?
A: 1.034 ± 0.0022

Q: Which switch fluorescence ratio does the source give for GGGTATTATA here?
A: 0.996 ± 0.03

Q: With TGGATAAGAG as the sequence, how does the switch fluorescence ratio read?
A: 0.975 ± 0.019

Q: With CGGGGGGTCT as the sequence, how does the switch fluorescence ratio read?
A: 0.999 ± 0.04

Q: CGGTTTTGTT was tested. Which switch fluorescence ratio did it give?
A: 1.02 ± 0.035

Q: How did the switch fluorescence ratio turn out when ACGAGTGTTG was run?
A: 1.03 ± 0.037

Q: Which switch fluorescence ratio does the source give for TATGACACTT here?
A: 1.03 ± 0.047

Q: For TTAGGTTTCT, which switch fluorescence ratio is on record?
A: 1 ± 0.011

Q: How did the switch fluorescence ratio turn out when ATTTTGCGAT was run?
A: 1.01 ± 0.015

Q: For GAGAGGGATT, which switch fluorescence ratio is on record?
A: 1.03 ± 0.015

Q: For TTTACTTA, which switch fluorescence ratio is on record?
A: 1.0157 ± 0.00064

Q: With TAAAAATAGG as the sequence, how does the switch fluorescence ratio read?
A: 1 ± 0.022

Q: How did the switch fluorescence ratio turn out when CGCGTGTCTG was run?
A: 1.022 ± 0.0039

Q: AAGTATATTT was tested. Which switch fluorescence ratio did it give?
A: 1.001 ± 0.0047

Q: How did the switch fluorescence ratio turn out when GATTTACGTG was run?
A: 1.02 ± 0.012

Q: For TTTATATTTC, which switch fluorescence ratio is on record?
A: 0.99 ± 0.046

Q: TTTCGATTGC was tested. Which switch fluorescence ratio did it give?
A: 1.004 ± 0.01

Q: For CTTGTTAGGA, which switch fluorescence ratio is on record?
A: 1 ± 0.012

Q: Which switch fluorescence ratio does the source give for AAATGTCTAA here?
A: 1 ± 0.019

Q: Which switch fluorescence ratio does the source give for GAGCTTTTGG here?
A: 1.03 ± 0.068

Q: With TAAGTACCGG as the sequence, how does the switch fluorescence ratio read?
A: 1.06 ± 0.038

Q: How did the switch fluorescence ratio turn out when GTAATATTAT was run?
A: 0.974 ± 0.032

Q: For TCGTAGTATT, which switch fluorescence ratio is on record?
A: 0.993 ± 0.021

Q: For GGTCAAGGGG, which switch fluorescence ratio is on record?
A: 0.9826 ± 0.0088

Q: How did the switch fluorescence ratio turn out when CGGTAAATGG was run?
A: 1.02 ± 0.04

Q: With ACCATCCGGC as the sequence, how does the switch fluorescence ratio read?
A: 1.12 ± 0.012

Q: How did the switch fluorescence ratio turn out when AGAACCTCTT was run?
A: 1.06 ± 0.033

Q: For AACACGGAAC, which switch fluorescence ratio is on record?
A: 1.29 ± 0.027

Q: TTGTTTACCG was tested. Which switch fluorescence ratio did it give?
A: 0.9557 ± 0.0045

Q: With AATAAAGCGT as the sequence, how does the switch fluorescence ratio read?
A: 0.983 ± 0.028

Q: Which switch fluorescence ratio does the source give for CGTGACAGAG here?
A: 0.992 ± 0.02

Q: GAATCAGGGG was tested. Which switch fluorescence ratio did it give?
A: 1.11 ± 0.012

Q: With TCAGTGTGCC as the sequence, how does the switch fluorescence ratio read?
A: 0.995 ± 0.03

Q: Which switch fluorescence ratio does the source give for CATTCAGTCG here?
A: 1 ± 0.026

Q: For GAAGTGTGGG, which switch fluorescence ratio is on record?
A: 0.962 ± 0.03

Q: For GGTAATTTTC, which switch fluorescence ratio is on record?
A: 1.11 ± 0.18

Q: CATTTAAAGC was tested. Which switch fluorescence ratio did it give?
A: 1 ± 0.018

Q: With ATCATAATCT as the sequence, how does the switch fluorescence ratio read?
A: 1.013 ± 0.0034

Q: For TTAGGGGCAG, which switch fluorescence ratio is on record?
A: 0.981 ± 0.034

Q: AAGTTTAGGG was tested. Which switch fluorescence ratio did it give?
A: 0.996 ± 0.027

Q: How did the switch fluorescence ratio turn out when TTTTAAGCGG was run?
A: 0.999 ± 0.015

Q: Which switch fluorescence ratio does the source give for CTGATTGTGT here?
A: 0.9718 ± 0.0034

Q: For GTTATGTGGT, which switch fluorescence ratio is on record?
A: 0.975 ± 0.0099

Q: TGGGAGCGGT was tested. Which switch fluorescence ratio did it give?
A: 0.995 ± 0.007

Q: Which switch fluorescence ratio does the source give for CGGAGGGGTC here?
A: 1.02 ± 0.02

Q: For AGGTGGGGTG, which switch fluorescence ratio is on record?
A: 1.03 ± 0.023

Q: For TGATTGAGGA, which switch fluorescence ratio is on record?
A: 0.981 ± 0.027

Q: Which switch fluorescence ratio does the source give for GGGGTTAAGG here?
A: 0.978 ± 0.029

Q: CGGTCGGGAA was tested. Which switch fluorescence ratio did it give?
A: 1.005 ± 0.01

Q: Which switch fluorescence ratio does the source give for TGCGCTTTTT here?
A: 1.03 ± 0.061

Q: Which switch fluorescence ratio does the source give for TTTACTAGGT here?
A: 0.959 ± 0.026

Q: For TTAGATACAT, which switch fluorescence ratio is on record?
A: 1 ± 0.019

Q: For CCGCCTTAAT, which switch fluorescence ratio is on record?
A: 2.21 ± 0.084

Q: Which switch fluorescence ratio does the source give for AAACTTTTTC here?
A: 1.02 ± 0.065

Q: With TGGGACGACG as the sequence, how does the switch fluorescence ratio read?
A: 0.991 ± 0.022

Q: How did the switch fluorescence ratio turn out when GGGAGATTTT was run?
A: 1.01 ± 0.035

Q: TAATGATTGT was tested. Which switch fluorescence ratio did it give?
A: 0.982 ± 0.042

Q: With GAATCAAGCG as the sequence, how does the switch fluorescence ratio read?
A: 0.986 ± 0.059

Q: For GCGATGAGAG, which switch fluorescence ratio is on record?
A: 1.03 ± 0.026

Q: With TTTTATCCCA as the sequence, how does the switch fluorescence ratio read?
A: 1.004 ± 0.0067

Q: How did the switch fluorescence ratio turn out when ATAAGATTAC was run?
A: 1.012 ± 0.0091

Q: Which switch fluorescence ratio does the source give for ATTTTCATTG here?
A: 0.9749 ± 0.0087

Q: With CTGAATTAAG as the sequence, how does the switch fluorescence ratio read?
A: 0.99 ± 0.016

Q: With CGTTGGGGGG as the sequence, how does the switch fluorescence ratio read?
A: 0.999 ± 0.03

Q: Which switch fluorescence ratio does the source give for GCTGAGGGTG here?
A: 1.01 ± 0.028

Q: GCAAATGGGA was tested. Which switch fluorescence ratio did it give?
A: 1.05 ± 0.017

Q: How did the switch fluorescence ratio turn out when GCAATTGGGA was run?
A: 1.05 ± 0.017
